# Assay results: the DeepSol protein solubility set
# Test: soluble on expression in E. coli; label from the status in PepcDB or PDB records
row,Sequence,soluble on expression in E. coli
1,MKKVLIANRGEIAVRIIRACRDLGIQTVAIYSEGDKDALHTQIADEAYCVGPTLSKDSYLNIPNILSIATSTGCDGVHPGYGFLAENADFAELCEACQLKFIGPSYQSIQKMGIKDVAKAEMIKANVPVVPGSDGLMKDVSEAKKIAKKIGYPVIIKATAGGGGKGIRVARDEKELETGFRMTEQEAQTAFGNGGLYMEKFIENFRHIEIQIVGDSYGNVIHLGERDCTIQRRMQKLVEEAPSPILDDETRREMGNAAVRAAKAVNYENAGTIEFIYDLNDNKFYFMEMNTRIQVEHPVTEMVTGIDLVKLQLQVAMGDVLPYKQEDIKLTGHAIEFRINAENPYKNFMPSPGKIEQYLAPGGYGVRIESACYTNYTIPPYYDSMVAKLIIHEPTRDEAIMAGIRALSEFVVLGIDTTIPFHIKLLNNDIFRSGKFNTNFLEQNSIMNDEG,soluble
2,MKNILVFLMLGVMLSALQELRYPSGYRVNGSRVFYTYIELTEIDMTTFEILNERYAKDKNAVYYEGKVIVNVDPEDFELLGDFFGKTKNNIYIGNTIIKDADINSFELLGHSRSRDKNHVFFADKILKNADPATYIVFNNKYAKDKNHVYFWDKEIENADAPTFEVLNGEYGKDKNRVYYNSRVVRKADPATFRILEGPFSKDKNYVYVTGEIFEKADVKTFQTLGDYGYAKDKRYVYRYNKILEGEKPADFLPPPQPVIMY,not soluble
3,MSLTILNHTLGFPRVGLRRELKKAQESYWAGNSTREELLAVGRELRARHWDQQKQAGIDLLPVGDFAWYDHVLTTSLLLGNVPARHQNKDGSVDIDTLFRIGRGRAPTGEPAAAAEMTKWFNTNYHYMVPEFVKGQQFKLTWTQLLDEVDEALALGHKVKPVLLGPVTWLWLGKVKGEQFDRLSLLNDILPVYQQVLAELAKRGIEWVQIDEPALVLELPQAWLDAYKPAYDALQGQVKLLLTTYFEGVTPNLDTITALPVQGLHVDLVHGKDDVAELHKRLPSDWLLSAGLINGRNVWRADLTEKYAQIKDIVGKRDLWVASSCSLLHSPIDLSVETRLDAEVKSWFAFALQKCHELALLRDAVNSGDTAALAEWSAPIQARRHSTRVHNPAVEKRLAAITAQDSQRANVYEVRAEAQRARFKLPAWPTTTIGSFPQTTEIRTLRLDFKKGNLDANNYRTGIAEHIKQAIVEQERLGLDVLVHGEAERNDMVEYFGEHLDGFVFTQNGWVQSYGSRCVKPPIVIGDISRPAPITVEWAKYAQSLTDKPVKGMLTGPVTILCWSFPREDVSRETIAKQIALALRDEVADLEAAGIGIIQIDEPALREGLPLRRSDWDAYLQWGVEAFRINAAVAKDDTQIHTHMCYCEFNDIMDSIAALDADVITIETSRSDMELLESFEEFDYPNEIGPGVYDIHSPNVPSVEWIEALLKKAAKRIPAERLWVNPDCGLKTRGWPETRAALANMVQAAQNLRRGEGHHHHHH,soluble
4,MAAFEAHDYALAERQAQALLAHPATASGARFMLGYVYAFMDRFDEARASFQALQQQAQKSGDHTAEHRALHQVGMVERMAGNWDAARRCFLEERELLASLPEDPLAASANAYEVATVALHFGDLAGARQEYEKSLVYAQQADDQVAIACAFRGLGDLAQQEKNLLEAQQHWLRARDIFAELEDSEAVNELMTRLNGLEHHHHHH,not soluble
5,MGHHHHHHSHIAMRRDRGPKPALGGAGEVEPGGMAASPTGRPRRLQRYLQSGEFDQFRDFPIFESNFVQVTRLGEVANEVTMGVAASSPALELPDLLLLAGPAKENGHLQLFGLFPLKFVQLFVHDKSRCQLEVKLNTSRTFYLQLRAPLKTRDREFGQWVRLLYRLRFLSASAVPFTQE,not soluble
6,GPGSMIGAPWPPEAVFGNTVDRVASPAPVPERKISIADQLHLPLSRFVEKMSWGEKRRVQILHGMLYPATVYLLDECSTDIDVAERRTVLELVRQECEAKDGCCVYATHIFDGIEGWATHLLLMEGGRVVDFKAVEKLTLPLEDYALQFMSKRAHAARGVDGVAAASLSHGSSAAISTTSPACPTTAAAACPTSATTDAPVTYWPRGHADEKRSEIVINCAQLNYKDVFKNLSFQVFRGERVLLCGGNGTGKSTLLNMLGGKQFFDNRQGSLSVLGKRCYDDMLLNALVSYGGDWWTAVPGGEVHVREMLQLRTSRAERLCEMLAVDMDWDVRHISAGEQKRVQLLLHLLDDKPVVLLDEATTDLDVYQRHSLLQFLYEESVQRGVTVVYSTHIFGGVEGWANVVVLLDRTVRGVHAVWRASEGQPIVLQRVVDAIVSLKAREVF,not soluble
7,NSSDYRALFLNDVPMMDARAPVEFSKGAFPGVINLPLMNDIERQKVGTCYKQHGQDAAIQLGHQLVCGQVKDERVEAWVEFARANPNGYLYCFRGGLRSQTVQRWLKDAGVDYPRILGGYKAMRTFLLDTLHEAVTE,not soluble
8,GHMGLEPYEISTLFEQRQAMLQSIKEGVVAVDDRGEVTLINDAAQELLNYRKSQDDEKLSTLSHSWSQVVDVSEVLRDGTPRRDEEITIKDRLLLINTVPVRSNGVIIGAISTFRDKT,soluble
9,MSHLLTMSELSEVEISEILKDAEDFANGKESKTTEQTFVANLFFENSTRTRFSFEVAEKRLGLDVLNFSADASSVQKGETLYDTIRTLESIGTKAVVIRHEQDRYFDELKDQVNIPILNAGDGCGNHPTQCLLDLLTIKQEFGRFEGLKIAIVGDVRHSRVARSNAEALTKLGATIYFASPEEWKDEDNTFGTYKPLDELVPEVDVMMLLRVQHERHDHYETDIMKEYHEKHGLTVEREKRMKEGSIIMHPAPVNRDVEIASELVECERSRIFKQMENGVYVRMAVLKRALPNVLGGMKHELFV,not soluble
10,MNEEVRELERLVPAAATGDKTALQRIISIVYPQVLRYARTRLSGGRHPTPEDVAQEICLAVATSIAKFVDQGKPFMAFVYGIASNKVADAHRLYSRDLSNPTDEVPETEIDNDTPESFALLAAGSNRVQQLLDLLGDKPREILTLRVFVGLSAEETAEIVGSTPGAVRVAQHRALATLRKAIEQETGE,not soluble
11,SAAETRNVAGAEAPPPQKRYYRQRAHSNPMADHTLRYPVKPEEMDWSELYPEFFAPLTQNQSHDDPKDKKEKRAQAQVEFADIGCGYGGLLVELSPLFPDTLILGLEIRVKVSDYVQDRIRALRAAPAGGFQNIACLRSNAMKHLPNFFYKGQLTKMFFLFPDPHFKRTKHKWRIISPTLLAEYAYVLRVGGLVYTITDVLELHDWMCTHFEEHPLFERVPLEDLSEDPVVGHLGTSTEEGKKVLRNGGKNFPAIFRRIQDPVLQAVTSQTSLPGH,soluble
12,MLIKLGTELTKEEYVTRYMRNFQKLLLLGDRPKVLTNREEQLLQYEKELCVLFYEQFIKKHHRAPDEATLDDQVKANFIERSKIFARSPLVMDEGNFTQAHIGQLKRLRELRMEDYLPDNYTHILQREEELARNYFRKHDDYPFGYECLCISRSREVVNQGLEKLLEGFYDSYQVYYRRYRKNG,not soluble
13,MARFIAQLLLLASCVAAGQAVTAFLGERVTLTSYWRRVSLGPEIEVSWFKLGPGEEQVLIGRMHHDVIFIEWPFRGFFDIHRSANTFFLVVTAANISHDGNYLCRMKLGETEVTKQEHLSVVKPLTLSVHSERSQFPDFSVLTVTCTVNAFPHPHVQWLMPEGVEPAPTAANGGVMKEKDGSLSVAVDLSLPKPWHLPVTCVGKNDKEEAHGVYVSGYLSQ,soluble
14,MGSDKIHHHHHHDETDPILTQKNWDGTATYFQSSDEHGFSMYYKPQVGFVGDPMPFYDPVAKDFKVMYLQDYRPNPEATYHPIFGVATKDGATYESLGELISCGGRDEQDAAIGTGGTIYNPADKLYYTFYTGNKFKPSSDQNAQVVMVATSPDFKTWTKNRTFYLKGDTYGYDKNDFRDPFLFQTEDGVYHMLIATRKNGKGHIAEFTSADLKEWESAGTFMTMMWDRFYECPDVFKMGDWWYLIYSEQASFMRKVQYFKGRTLEDLKATTANDAGIWPDNREGMLDSRAFYAGKTASDGTNRYIWGWCPTRAGNDNGNVGDVEPEWAGNLVAQRLIQHEDGTLTLGVPDAIDRKYTSAQEVKVMAKDGNMIESGKTYTLGEGASVIFNRLKVHNKISFTVKTASNTDRFGISFVRGTDSASWYSIHVNADEGKANFEKDGDDAKYLFDNKFNIPADNEYRVTIYSDQSVCVTYINDQLSFTNRIYQMQKNPWSLCCYKGEITVSDVQVSTY,not soluble
15,MSLITACPRPCAWRSYALGLGLLPLAAQAEFLADSSAHLDLRNFYQLRDYRQHDAPQSQAGNWSQGFVLRLQSGFTGGPLGFGLDATGLLGVKLDSGRGRSNDGTLPFGANSKEPVDDYSHLGLTAKLRYSQTQLQVGILMPQLPVAFRDDVRLLPQTFDGALLTSSEIEGLTLTAGQLWKSRTRESAGSDDMYIMGRDKAHASDEFNLAGATYAFTPRLSASYYYGQLKDIYRQHYLGLLHTLPLGEGLSLRSDLRYFDSGEDGAAISGPVDNRNLNAMLTLRAGAHAFGIGVQKMIGNDAFPVLNGYTTPYVANLMAYQTFTRPQEKSWQLRYDYDFAGLGLPGLNLMTRYVQGRDIDRGAGRADDSEWERNTDLSYVIQSGPLKSVALKWRNITYRSRYGADLDENRFIVNYTLKLWEGHHHHHH,soluble
16,MSLSEDENALSIFETNCHSGSPKKQSSSAAIHKPYLHFTMSPYHQPTSYRPRLLLSGERGSGQTSHLAPALLHTLERFSVHRLDLPALYSVSAKTPEESCAQIFREARRTVPSIVYMPHIGDWWEAVSETVRATFLTLLQDIPSFSPIFLLSTSETMYSELPEEVKCIFRIQYEEVLYIQRPIEEDRRKFFQELILNQASMAPPRRKHAALCAMEVLPLALPSPPRQLSESEKSRMEDQEENTLRELRLFLRDVTKRLATDKRFNIFSKPVDIEEVSDYLEVIKEPMDLSTVITKIDKHNYLTAKDFLKDIDLICSNALEYNPDKDPGDKIIRHRACTLKDTAHAIIAAELDPEFNKLCEEIKEARIEGHHHHHH,not soluble
17,MGSDKIHHHHHHMHMLLSERISLMIRGGYVGRNPNTGKLQQHLQNGYERLQKGDLDAKRFDGAESTAHSMAIIGCSGSGKTTSLRRILNTYPQVIFHPTLNRHQIVYLKIDCSHDGSLKELCLNFFRAIDKVIGSNYEKKYGMKRHGVETMLALMAQTANMFALGLLVIDEIQHLSRAKSGGSEKMLNFFVTMSNTIGIPVLFVGTPKARDIFDLDLRSSRRAAGLGSIFWNPISQYLPDQKSQNPEWIAFTNTLWKLQYLQKRDPILSDEIRDTWFDLSQGILDIVVKLFILAQLRALATGAEKITVELLKRVYEDELKLVHPMLSALRSGIPERIAQFSDLAVPDMDKKIIHLIQKISASTVESEEDRALKQLSNDDQRRIYLMLKDEFPSDSIIFAIQKIVELKPQISRQQLLASIIQAMETDNTTSQVTVTKKKNQRIGLKQWNELEDTDLRHIFSMNSTSPESIYTQLNHHGLILQMSDLLS,not soluble
18,IHNSRWIMTPEVKEDCKMRLFCLPFAGGGALAYRSWCRYMPPEIELCAVQLPGRENRIKDEKFYDINLLIDELVLQILPYLDKPFALYGHSMGGLISFELARRIRKVKGLTPKILFFSGSKAPQLYDHTKDISHLPDELFLKAIKSFNGMPDMFWQDRELIEFKLPTLRADFSVLEGYNYYNEEPLECPISALCGENDKIISKKDMEALALQTKNQFKLRMFDGDHFFINTCRSKVLKSIIEDLN,not soluble
19,MTQFNPVDHPHRRYNPLTGQWILVSPHRAKRPWQGAQETPAKQVLPAHDPDCFLCAGNVRVTGDKNPDYTGTYVFTNDFAALMSDTPDAPESHDPLMRCQSARGTSRVICFSPDHSKTLPELSVAALTEIVKTWQEQTAELGKTYPWVQVFENKGAAMGCSNPHPHGQIWANSFLPNEAEREDRLQKEYFAEQKSPMLVDYVQRELADGSRTVVETEHWLAVVPYWAAWPFETLLLPKAHVLRITDLTDAQRSDLALALKKLTSRYDNLFQCSFPYSMGWHGAPFNGEENQHWQLHAHFYPPLLRSATVRKFMVGYEMLAETQRDLTAEQAAERLRAVSDIHFRESGV,soluble
